Three molecules from patent publication US20260234234A1 (QILU PUGET SOUND BIOTHERAPEUTICS, published 2026) can be followed below.

B2: Avitag_c-MYC_His6-tagged hIL-33 (Ser112-Thr270), QB10975 (ligand)
chain: GLNDIFEAQKIEWHEGGGGSEQKLISEEDLGSSHHHHHHSSGSITGISPITEYLASLSTYNDQSITFALEDESYEIYVEDLKKDEKKDKVLLSYYESQHPSNESGDGVDGKMLMVTLSPTKDFWLHANNKEHSVELHKCEKPLPDQAFFVLHNMHSNCVSFECKTDPGVFIGVKDNHLALIKVDSSENLCTENILFKLSET
notes: Entry includes N-terminal Avitag, c-MYC and His6 tags; reduced with DTT to the active form; also called active hIL-33; reduced hIL-33

Experiment [1] has as its target B2. Briefly: SPR. (In general: SPR reads the build-up and loss of mass on a sensor chip optically.)
The target in experiment [2] is T1, His6-tagged cyIL-33 (Ser112-Ile270), QB10976 (cynomolgus monkey).
T1 construct: Entry includes N-terminal Avitag, FLAG and His6 tags; isoform X1, NCBI XP_005581824; also called cyIL-33 antigen
T1 chain: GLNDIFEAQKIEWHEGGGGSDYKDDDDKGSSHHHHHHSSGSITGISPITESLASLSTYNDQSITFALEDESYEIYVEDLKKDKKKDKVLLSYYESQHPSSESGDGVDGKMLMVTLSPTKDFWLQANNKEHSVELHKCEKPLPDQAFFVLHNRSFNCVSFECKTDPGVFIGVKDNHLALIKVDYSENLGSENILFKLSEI
Put plainly: SPR, cyIL-33 analyte.

For experiment [3], the target named is B2. Put plainly: SPR, captured antibody, hIL-33 analyte, 37 C, 1:1 fit.
Experiment [4] addresses T1, His6-tagged cyIL-33 (Ser112-Ile270), …. Briefly: SPR, captured antibody, cyIL-33 analyte, 25 C, 1:1 fit.
Experiment [5] has as its target T2, hST2-Fc protein from R&D Systems (cat no. 523-ST-100) (human, UniProt Q01638 19-328, limits assumed).
T2 construct: Bought reagent; also called human ST2
T2 sequence (looked up): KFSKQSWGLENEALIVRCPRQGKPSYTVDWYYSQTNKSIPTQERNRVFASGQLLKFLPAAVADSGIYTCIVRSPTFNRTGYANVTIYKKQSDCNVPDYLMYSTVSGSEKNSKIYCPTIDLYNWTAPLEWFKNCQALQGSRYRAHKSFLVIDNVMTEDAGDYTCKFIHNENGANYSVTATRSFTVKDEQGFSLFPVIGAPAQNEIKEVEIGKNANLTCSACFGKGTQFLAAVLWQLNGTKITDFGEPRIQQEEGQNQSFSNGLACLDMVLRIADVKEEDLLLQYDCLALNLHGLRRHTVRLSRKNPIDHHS
Put plainly: SPR, hST2-Fc immobilised on CM5, RU against hIL-33 concentration, 1 min association; 1 min association.

The target of experiment [6] is T2, hST2-Fc protein from R&D Systems (cat …). Put plainly: SPR, hST2-Fc immobilised on CM5, RU against hIL-33 concentration, 2 min association; 2 min association.
The target of experiment [7] is T1, His6-tagged cyIL-33 (Ser112-Ile270), …. Briefly: SPR, Biacore T200.
In experiment [8] the target is B2. Briefly: SPR competition, antibody titrated against 10 nM hIL-33, over immobilised hST2-Fc.
Experiment [9] has as its target B2. Put plainly: SPR (Biacore) blocking: mAb premixed with 10 nM hIL-33, flowed over ST2-Fc on a CM5 chip; blocked partner ST2-Fc.

B1: anti-hIL-33 IgG1 antibody QB11421 (antibody)
heavy: EVQLLESGGGLVQPGGSLRLSCAASGFTFYSSAMSWFRQTQGKGLEWVSTISSGGSNTYYPDSVKGRFTISRDNSKNTLYLQMNSLGAEDTAVYYCASAYYGRRYDAMDYWGQGTLVTVSSASTKGPSVFPLAPSSKSTSGGTAALGCLVKDYFPEPVTVSWNSGALTSGVHTFPAVLQSSGLYSLSSVVTVPSSSLGTQTYICNVNHKPSNTKVDKKVEPKSCDKTHTCPPCPAPEAAGGPSVFLFPPKPKDTLMISRTPEVTCVVVDVSHEDPEVKFNWYVDGVEVHNAKTKPREEQYNSTYRVVSVLTVLHQDWLNGKEYKCKVSNKALAAPIEKTISKAKGQPREPQVYTLPPSREEMTKNQVSLTCLVKGFYPSDIAVEWESNGQPENNYKTTPPVLDSDGSFFLYSKLTVDKSRWQQGNVFSCSVMHEALHNHYTQKSLSLSPGK
light: DVVMTQSPPSLPVTLGQSASISCKSSESLLHSNANTYLYWFQQRPGQSPQLLIYRGSNLASGVPDRFSGSGSGTDFTLKISRVEAEDVGVYYCMQHLRNPYTFGQGTKVEIKRTVAAPSVFIFPPSDEQLKSGTASVVCLLNNFYPREAKVQWKVDNALQSGNSQESVTEQDSKDSTYSLSSTLTLSKADYEKHKVYACEVTHQGLSSPVTKSFNRGEC
notes: IgG1 L234A, L235A, P329A; also called top clone as IgG1
The term Kd denotes the free concentration of one partner at which half of the binding sites on the other are occupied at equilibrium, for simple one-to-one binding. Read a low Kd as a tighter complex. For orientation: koff means the rate constant with which the complex falls apart. Low values mean slow dissociation, high ones fast dissociation. For orientation: kon means a measure of how fast the partners come together. In the case of B1, in [1], the “fold increase of affinity against parental antibody QB11119” value was roughly 2 fold. Moreover, the “fold improvement of affinity against parental antibody QB11119” value in experiment [2] was roughly 3 fold. For the same molecule, in [3], the Kd is 0.207 nM, the koff came out at 0.000669 s⁻¹ and the kon was determined as 3.23e+06 M⁻¹ s⁻¹. In [4], the Kd came out at 4.89 nM, the koff amounted to 0.00188 s⁻¹ and the kon turned out to be 384000 M⁻¹ s⁻¹.
The EC50 is the midpoint of the concentration-response curve. Read a high EC50 as weaker potency. For B2, the EC50 came to 10.8 nM in experiment [5] and 5.17 nM in experiment [6].

B3: chimeric anti-hIL-33 antibody QB10998 (antibody, human IgG1, kappa, V domains shown)
VH: EVMLVESGGGLVKPGGSLKLSCAASGFTFYSSAMSWVRQTPEKRLEWVATISSGGSNTYYPDSVKGRFTISRDNAKNTLYLQMSSLGSEDTAMYYCASAYYGRRYDAMDYWGQGTSVTVSS
VL: DIVMTQAAPSIPVTPGESVSISCKSSKSLLHSNGNTYLYWFLQRPGQSPQLLIYRMSNLASGVPDRFSGSGSGTAFTLRISRVEAEDVGVYYCMQHLENPYTFGGGTKLELNR
notes: Text says murine VH on human IgG4 constant regions; the printed HC entry looks like IgG1; also called chimeric antibody
What is called IC50 is the concentration that inhibits the measured activity by half. Turning to B3, the binding result in experiment [7] is listed as “binds”. The concentration for half-maximal inhibition (IC50) in experiment [8] was 1.5 nM; in experiment [9] it was 1.01 nM.
